Key:
Assay in all cases: EMSA
TRF2ΔBΔHinge = TRF2ΔBΔHinge (UniProt Q15554 87-287+484-542, internal_change)
Myc-TRF2ΔB (RRL) = Myc-TRF2ΔB (RRL) (UniProt Q15554 87-542)
Myc-TRF2ΔBΔTRFH (RRL) = Myc-TRF2ΔBΔTRFH (RRL) (UniProt Q15554 288-542)
TRF2ΔBΔTRFH = TRF2ΔBΔTRFH (UniProt Q15554 288-542)
TRF2ΔB-F59A = TRF2ΔB-F59A (UniProt Q15554 87-542, F101A)
TRF2ΔB = TRF2ΔB (UniProt Q15554 87-542)
Myc-TRF2ΔBΔHinge (RRL) = Myc-TRF2ΔBΔHinge (RRL) (UniProt Q15554 87-287+484-542, internal_change)

Measured: binding result

B1: 4-repeat telomeric probe (dsDNA)
DNA 1: GTACCCGGGGATCGTCGACTCTAGAGGGGCCCTAACCCTAACCCTAACCCTAACCCGGGCTCGAATTCGATCCTCTAGAGTCGACCTGCAGGCATGCAAGCU
DNA 2: AGCTTGCATGCCTGCAGGTCGACTCTAGAGGATCGAATTCGAGCCCGGGTTAGGGTTAGGGTTAGGGTTAGGGCCCCTCTAGAGTCGACGATCCCCGGGUAC
modifications: Cy5.5-dUTP incorporated by Klenow fill-in (U near both 3' ends)
binds: all assays above
